B1: mouse core RAG2 (aa 1-359) (domain or fragment, UniProt P21784 1-359, looked up)
chain: MSLQMVTVGHNIALIQPGFSLMNFDGQVFFFGQKGWPKRSCPTGVFHFDIKQNHLKLKPAIFSKDSCYLPPLRYPATCSYKGSIDSDKHQYIIHGGKTPNNELSDKIYIMSVACKNNKKVTFRCTEKDLVGDVPEPRYGHSIDVVYSRGKSMGVLFGGRSYMPSTQRTTEKWNSVADCLPHVFLIDFEFGCATSYILPELQDGLSFHVSIARNDTVYILGGHSLASNIRPANLYRIRVDLPLGTPAVNCTVLPGGISVSSAILTQTNNDEFVIVGGYQLENQKRMVCSLVSLGDNTIEISEMETPDWTSDIKHSKIWFGSNMGNGTIFLGIPGDNKQAMSEAFYFYTLRCSEEDLSEDQ
B2: mouse core RAG1 (aa 384-1008), E962Q mutant (domain or fragment, UniProt P15919 384-1008, looked up)
chain: VHINKGGRPRQHLLSLTRRAQKHRLRELKIQVKEFADKEEGGDVKAVCLTLFLLALRARNEHRQADELEAIMQGRGSGLQPAVCLAIRVNTFLSCSQYHKMYRTVKAITGRQIFQPLHALRNAEKVLLPGYHPFEWQPPLKNVSSRTDVGIIDGLSGLASSVDEYPVDTIAKRFRYDSALVSALMDMEEDILEGMRSQDLDDYLNGPFTVVVKESCDGMGDVSEKHGSGPAVPEKAVRFSFTVMRITIEHGSQNVKVFEEPKPNSELCCKPLCLMLADESDHETLTAILSPLIAEREAMKSSELTLEMGGIPRTFKFIFRGTGYDEKLVREVEGLEASGSVYICTLCDTTRLEASQNLVFHSITRSHAENLQRYEVWRSNPYHESVEELRDRVKGVSAKPFIETVPSIDALHCDIGNAAEFYKIFQLEIGEVYKHPNASKEERKRWQATLDKHLRKRMNLKPIMRMNGNFARKLMTQETVDAVCELIPSEERHEALRELMDLYLKMKPVWRSSCPAKECPESLCQYSFNSQRFAELLSTKFKYRYEGKITNYFHKTLAHVPEIIERDGSIGAWASEGNQSGNKLFRRFRKMNARQSKCYEMEDVLKHHWLYTSKYLQKFMNAHNA

How the values were obtained:
[1] = biological target: B2; experiment: crystal structure
[2] = biological target: the molecule itself; experiment: crystal structure

Row | binding result [1] | Binder | binding result [2]
1 | binds | B1 | 
2 |  | B2 | binds

Reference: article PMC5987255 (Molecular cell, 2018)
